Test results reported in patent US20080280358A1 (University of California, published 2008).

Target: Purified rabbit muscle actin (Cytoskeleton Inc.) (rabbit, UniProt P68135 3-377)
Assay: cell-based or functional assay

B1: SS15 less active synthetic peptide (peptide)
peptide: GIVRKAISRFEVAPYL
bundling activity at molar ratio 10:1 and 100:1: 10 molar ratio peptide:actin
bundling activity at molar ratio peptide:actin = 1:1: 1 molar ratio peptide:actin
effective peptide to actin ratio for bundling: ~16 molar ratio peptide:actin

B2: SS2 active peptide (SuSy 377-392) (peptide)
peptide: GIVRKWISRFEVWPYLKK
bundling activity at 1:1 molar ratio to actin: 1 molar ratio peptide:actin
bundling activity at molar ratio peptide:actin = 1:1: 1 molar ratio peptide:actin
bundling when the peptide is present during polymerization: 2 molar ratio peptide:actin
effective peptide to actin ratio for bundling: 1 molar ratio peptide:actin
molar ratio of peptide to actin giving half-bundled and half-F-actin (co-polymerization, centrifugation, SDS-PAGE): 0.5 molar ratio peptide:actin
molar ratio of peptide:actin to bundle all the F-actin during polymerization: 1 molar ratio peptide:actin

B3: SS12 active synthetic peptide (peptide)
peptide: GIVRKWISRFEVWPYL
bundling activity at 1:1 molar ratio to actin: 1 molar ratio peptide:actin
bundling activity at molar ratio 100:1: 100 molar ratio peptide:actin
bundling activity at molar ratio peptide:actin = 1:1: 1 molar ratio peptide:actin
bundling activity at molar ratio to actin of 10 and 50: 50 molar ratio peptide:actin
effective peptide to actin ratio for bundling: 1 molar ratio peptide:actin
